The values that follow are results of earlier work, collected in article PMC6934455, “Molecular Dynamics model of peptide-protein conjugation: case study of covalent complex between Sos1 peptide and N-terminal SH3 domain from Grb2” (Scientific Reports, 2019).

The data set addresses Sos1 peptide (Homo sapiens) (UniProt Q07889).

Grb2 N-terminal SH3, sequence (P62993 1-58): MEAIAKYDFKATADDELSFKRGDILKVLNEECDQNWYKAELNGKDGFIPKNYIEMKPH

Regarding “Grb2 N-terminal SH3 (from UniProt P62993)”, the Kd was 3.5 µM.
